According to patent publication US20220251217A1 (University of California, published 2022):

T1: CD72-Fc (CD72 extracellular domain, aa 117-359, fused to a biotinylated human Fc domain) (human, UniProt P21854 117-359, biotinylated (on the Fc domain; site not stated))
T1 chain: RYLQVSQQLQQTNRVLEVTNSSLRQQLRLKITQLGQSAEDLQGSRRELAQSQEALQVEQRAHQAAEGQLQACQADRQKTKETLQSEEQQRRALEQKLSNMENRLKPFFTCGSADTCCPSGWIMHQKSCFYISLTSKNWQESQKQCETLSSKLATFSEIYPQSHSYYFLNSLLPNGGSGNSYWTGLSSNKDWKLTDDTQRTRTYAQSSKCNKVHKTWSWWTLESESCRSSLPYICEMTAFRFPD

T2: CD72-Fc (CD72 extracellular domain, aa 117-359, fused to a biotinylated human Fc domain) (human, UniProt P21854 117-359, biotinylated (on the Fc domain; site not stated))
T2 construct: range 117-359; Expressed in mammalian cells; also called CD72-ECD-Fc protein; recombinant CD72-Fc fusion protein; not shown: human Fc domain
T2 sequence (looked up): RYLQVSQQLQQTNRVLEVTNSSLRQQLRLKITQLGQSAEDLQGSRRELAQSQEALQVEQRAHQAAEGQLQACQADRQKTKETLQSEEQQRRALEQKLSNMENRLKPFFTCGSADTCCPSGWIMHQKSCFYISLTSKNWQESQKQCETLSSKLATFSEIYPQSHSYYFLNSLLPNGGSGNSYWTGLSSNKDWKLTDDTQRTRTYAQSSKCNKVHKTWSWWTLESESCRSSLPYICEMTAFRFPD


Assays:
[1] = target: T1, CD72-Fc (CD72 extracellular domain, aa …); test: on-yeast binding (yeast display flow cytometry)
[2] = target: T2, CD72-Fc (CD72 extracellular domain, aa …); test: on-yeast affinity measurement, flow cytometry, titration of CD72-Fc
Excerpt: FIG. 4a-e: Isolation of high-affinity CD72 nanobodies with yeast display (a) Schematic of workflow for in vitro anti-CD72 nanobody selection using yeast display. (b) Structure models of the recombinant Fc-fusion proteins used to perform yeast display selections. The Fc protein on the left was used to negatively select potential off-target nanobodies while the CD72-Fc protein (CD72 extracellular domain fused to a human Fc domain) was used to perform positive selection steps to isolate CD72-specific nanobodies (c) Schematic displaying the nanobody yeast display selection strategy for each MACS and FACS selection round to enrich for CD72-specific nanobody binders. Two rounds of MACS followed by four rounds of FACS with decreasing concentration of CD72 antigen produced high affinity anti-CD72 nanobodies. (d) On-yeast binding of recombinant CD72-Fc fusion protein for CD72-selected nanobodies Nb.B5 (nanobody sequence SEQ ID NO:2) and Nb.C2 (nanobody sequence SEQ ID NO:1) expressed on yeast to determine estimated binding affinities. Kd determined by curve fitting using non-linear least squares regression. (e) Flow cytometry plots of yeast clone Nb.C2 binding to 10 nM CD72-ECD-Fc protein (left) or 10 nM Fc protein (right). […]

Kd [1] | binding result [2] | Binder
1 nM | binds | Nb.B5 (VHH) VHH: QVQLQESGGGLVQAGGSLRLSCAASGTIFPVDYMGWYRQAPGKERELVAGINYGSNTYYADSVKGRFTISRDNAKNTVYLQMNSLKPEDTAVYYCAAWQPEGYAVDFYHPYWGQGTQVTVSS
1.5 nM | binds | Nb.C2 (VHH, also called yeast clone Nb.C2) VHH: QVQLQESGGGLVQAGGSLRLSCAASGTIFDWYSMGWYRQAPGKERELVAGIDTGANTYYADSVKGRFTISRDNAKNTVYLQMNSLKPEDTAVYYCAAHDDGDPWHVYWGQGTQVTVSS
